Test results published in US20070105162A1, “Monovalent avidin and streptavidin compositions” (Massachusetts Institute of Technology, priority 2005, published 2007).

Target: biotinylated AP-neuroligin-1 on rat hippocampal neurons (mouse) (UniProt Q99K10)
Assay: cell-based or functional assay

monovalent streptavidin A1D3 conjugated to Alexa Fluor 568 (designed binder), sequence (chain): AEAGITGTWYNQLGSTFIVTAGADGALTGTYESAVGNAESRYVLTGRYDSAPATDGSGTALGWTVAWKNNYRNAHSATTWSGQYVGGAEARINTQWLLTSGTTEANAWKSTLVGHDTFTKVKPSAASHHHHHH
monovalent streptavidin A1D3 conjugated to Alexa Fluor 568 (designed binder), sequence (chain): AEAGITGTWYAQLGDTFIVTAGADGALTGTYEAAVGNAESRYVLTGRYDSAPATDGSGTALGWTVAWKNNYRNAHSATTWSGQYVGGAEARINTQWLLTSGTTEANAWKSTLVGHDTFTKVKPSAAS

clusters/µm of labeled AP-neuroligin-1 after a two hour incubation | Substance
0.087 clusters/µm | monovalent streptavidin A1D3 conjugated to Alexa Fluor 568 (designed binder)
0.266 clusters/µm | Alexa Fluor 568-conjugated wild-type streptavidin (Molecular Probes) (from UniProt P22629 37-163)
